Data taken from paper PMC2928128.

How the values were obtained:
Test in all cases: SPR
[1] = biological target: GST-CDH23 + exon68ΔITEL (residues 847-1110)
[2] = biological target: GST-CDH23Δexon68ΔITEL (residues 847-1075)
[3] = biological target: GST-CDH23 + exon68 (cytoplasmic region of cadherin-23 including the exon68-encoded sequence, residues 847-1114)
[4] = biological target: GST-CDH23Δexon68 (cytoplasmic region of cadherin-23 lacking the exon68-encoded sequence, residues 847-1079)

Chain of harmonin-a PDZ3 domain (residues 434-545) (domain or fragment) (Q9ES64 434-545): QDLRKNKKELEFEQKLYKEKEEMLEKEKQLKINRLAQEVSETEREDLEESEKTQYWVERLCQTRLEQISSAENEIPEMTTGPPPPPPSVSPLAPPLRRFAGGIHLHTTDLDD

Kd [1]: > 5 µM
Kd [2]: > 5 µM
Kd [3]: > 5 µM
Kd [4]: > 5 µM
Substance: harmonin-a PDZ3 domain (residues 434-545) (domain or fragment)
